Substitutions are numbered along the chain they refer to. Names and notes keep the numbering of the source. Values joined by “and” are separate entries in the source; they are usually repeats but may differ in a detail not shown here. Identical values can stand only once. Each block holds one molecule with its values, some of them ahead of it.
Tests used:
[1] = biological target: Arabidopsis thaliana thimet oligopeptidase TOP1, full-length (A. thaliana) (UniProt Q94AM1); assay: SEC; purified His-tagged TOPs treated 30 min at RT with DTTred, DTTox, GSH or GSSG, purified again and dialysed; XBridge BEH200A SEC column, 50 mM sodium phosphate, 150 mM NaCl, 0.02% NaN3, pH 7.0
Q94AM1 = assay: as above
TOP1^C548A, Q94AM1 = biological target: T1, TOP1^C548A, Q94AM1; assay: size-exclusion chromatography (SEC), peak area quantification; conditions: chain shown with the change; treatment (Ctrl or GSSG) not stated for this panel; parent: est. 38; read off a plot
T1 chain: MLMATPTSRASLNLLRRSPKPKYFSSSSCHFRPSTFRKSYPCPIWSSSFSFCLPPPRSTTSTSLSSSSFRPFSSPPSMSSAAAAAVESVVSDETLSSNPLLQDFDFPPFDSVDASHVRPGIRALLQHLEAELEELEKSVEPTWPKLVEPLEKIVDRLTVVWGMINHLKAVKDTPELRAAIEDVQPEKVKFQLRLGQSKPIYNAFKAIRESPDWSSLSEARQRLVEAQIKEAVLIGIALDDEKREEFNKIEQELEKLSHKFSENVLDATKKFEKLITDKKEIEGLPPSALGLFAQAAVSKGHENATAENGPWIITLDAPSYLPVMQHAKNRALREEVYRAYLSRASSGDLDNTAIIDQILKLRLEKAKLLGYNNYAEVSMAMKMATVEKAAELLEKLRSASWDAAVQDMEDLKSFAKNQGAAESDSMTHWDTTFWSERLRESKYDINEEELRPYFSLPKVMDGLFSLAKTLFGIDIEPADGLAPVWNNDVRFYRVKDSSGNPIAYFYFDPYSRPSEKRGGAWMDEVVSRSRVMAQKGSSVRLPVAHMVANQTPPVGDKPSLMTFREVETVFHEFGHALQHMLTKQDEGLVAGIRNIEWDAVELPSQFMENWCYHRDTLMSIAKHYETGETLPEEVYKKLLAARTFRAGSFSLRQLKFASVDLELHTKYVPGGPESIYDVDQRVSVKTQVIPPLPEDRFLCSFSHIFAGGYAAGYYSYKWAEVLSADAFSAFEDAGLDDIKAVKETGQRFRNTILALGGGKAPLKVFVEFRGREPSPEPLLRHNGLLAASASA

TOP1^C699A, Q94AM1 = biological target: T2, TOP1^C699A, Q94AM1; assay: as above; conditions: chain shown with the change; treatment (Ctrl or GSSG) not stated for this panel; parent: est. 38; read off a plot
T2 chain: T1 chain with A548C, C699A

TOP1^C42A, Q94AM1 = biological target: T3, TOP1^C42A, Q94AM1; assay: as above; conditions: chain shown with the change; treatment (Ctrl or GSSG) not stated for this panel; parent: est. 38; read off a plot
T3 chain: T1 chain with C42A, A548C

TOP1^C29A, Q94AM1 = biological target: T4, TOP1^C29A, Q94AM1; assay: as above; conditions: chain shown with the change; treatment (Ctrl or GSSG) not stated for this panel; parent: est. 38; read off a plot
T4 chain: T1 chain with C29A, A548C

TOP1^C611A, Q94AM1 = biological target: T5, TOP1^C611A, Q94AM1; assay: as above; conditions: chain shown with the change; treatment (Ctrl or GSSG) not stated for this panel; parent: est. 38; read off a plot
T5 chain: T1 chain with A548C, C611A

Molecule: Arabidopsis thaliana thimet oligopeptidase TOP1, full-length (from UniProt Q94AM1 83-791) (enzyme)
- stoichiometry N [1]: 2 and 3

Molecule: Arabidopsis thaliana thimet oligopeptidase TOP1, full-length
- monomer/dimer ratio (SEC peak area) after DTTred or DTTox (Q94AM1): ∼7/1 under both conditions
- monomer/dimer ratio (SEC peak area) after GSH (Q94AM1): 3/1 and 2/1 post-GSH and -GSSG, respectively
- monomer/dimer ratio (SEC peak area) after GSSG (Q94AM1): 3/1 and 2/1 post-GSH and -GSSG, respectively

- other: percent dimer (TOP1^C548A, Q94AM1): 18%
B1: Arabidopsis thaliana thimet oligopeptidase TOP1, full-length, Q94AM1 C548A (protein)
chain: T1 chain

- other: percent dimer (TOP1^C699A, Q94AM1): 17%
B2: Arabidopsis thaliana thimet oligopeptidase TOP1, full-length, Q94AM1 C699A (protein)
chain: T1 chain with A548C, C699A

- other: percent dimer (TOP1^C42A, Q94AM1): 12%
B3: Arabidopsis thaliana thimet oligopeptidase TOP1, full-length, Q94AM1 C42A (protein)
chain: T1 chain with C42A, A548C

- other: percent dimer (TOP1^C29A, Q94AM1): 2.5%
B4: Arabidopsis thaliana thimet oligopeptidase TOP1, full-length, Q94AM1 C29A (protein)
chain: T1 chain with C29A, A548C

- other: percent dimer (TOP1^C611A, Q94AM1): 3.5%
B5: Arabidopsis thaliana thimet oligopeptidase TOP1, full-length, Q94AM1 C611A (protein)
chain: T1 chain with A548C, C611A

From paper PMC8215294
